Results from paper PMC4005458, “Brassinosteroids control root epidermal cell fate via direct regulation of a MYB-bHLH-WD40 complex by GSK3-like kinases” (eLife, 2014).

T1: GST-fused EGL3 (Arabidopsis, UniProt Q9CAD0 1-596)
T1 construct: also called EGL3-GST; source: E. coli BL21 (DE3) pLySs, purified (glutathione resin)
T1 sequence (looked up): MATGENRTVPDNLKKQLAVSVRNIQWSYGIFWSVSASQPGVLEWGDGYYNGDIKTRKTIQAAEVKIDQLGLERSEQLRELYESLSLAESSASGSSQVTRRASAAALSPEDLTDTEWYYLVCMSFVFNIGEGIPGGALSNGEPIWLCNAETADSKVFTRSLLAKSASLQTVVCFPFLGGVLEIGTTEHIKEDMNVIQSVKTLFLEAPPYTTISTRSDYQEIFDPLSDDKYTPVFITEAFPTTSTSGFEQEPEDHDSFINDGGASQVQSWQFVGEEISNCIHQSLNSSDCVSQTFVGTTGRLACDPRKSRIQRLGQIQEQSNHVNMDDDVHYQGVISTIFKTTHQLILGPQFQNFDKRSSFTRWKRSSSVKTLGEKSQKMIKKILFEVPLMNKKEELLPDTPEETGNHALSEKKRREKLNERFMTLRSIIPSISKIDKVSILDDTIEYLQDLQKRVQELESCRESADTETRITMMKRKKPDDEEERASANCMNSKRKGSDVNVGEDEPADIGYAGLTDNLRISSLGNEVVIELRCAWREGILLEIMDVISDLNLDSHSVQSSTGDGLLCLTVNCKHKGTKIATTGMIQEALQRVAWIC

B1: WEREWOLF (WER) fused to GST (natural protein, Arabidopsis, UniProt Q9SEI0 1-203, looked up)
chain: MRKKVSSSGDEGNNEYKKGLWTVEEDKILMDYVKAHGKGHWNRIAKKTGLKRCGKSCRLRWMNYLSPNVKRGNFTEQEEDLIIRLHKLLGNRWSLIAKRVPGRTDNQVKNYWNTHLSKKLGIKDQKTKQSNGDIVYQINLPNPTETSEETKISNIVDNNNILGDEIQEDHQGSNYLSSLWVHEDEFELSTLTNMMDFIDGHCF
notes: WER (WEREWOLF), R2R3 MYB-domain transcription factor of Arabidopsis; The methods describe the cloning of only EGL3 into pGEX4T-1; the making of WER-GST is not described; also called WER-GST; source: recombinant, purified
B2: His-fused BIN2 (enzyme, Arabidopsis, UniProt Q39011 1-380, looked up)
chain: MADDKEMPAAVVDGHDQVTGHIISTTIGGKNGEPKQTISYMAERVVGTGSFGIVFQAKCLETGETVAIKKVLQDRRYKNRELQLMRVMDHPNVVCLKHCFFSTTSKDELFLNLVMEYVPESLYRVLKHYSSANQRMPLVYVKLYMYQIFRGLAYIHNVAGVCHRDLKPQNLLVDPLTHQVKICDFGSAKQLVKGEANISYICSRFYRAPELIFGATEYTTSIDIWSAGCVLAELLLGQPLFPGENAVDQLVEIIKVLGTPTREEIRCMNPHYTDFRFPQIKAHPWHKIFHKRMPPEAIDFASRLLQYSPSLRCTALEACAHPFFDELREPNARLPNGRPFPPLFNFKQEVAGSSPELVNKLIPDHIKRQLGLSFLNQSGT
notes: BIN2 (BRASSINOSTEROID … 2), GSK3-like kinase of Arabidopsis, cloned into the PET28a vector; Primers are in Supplementary file 1; also called BIN2-His; source: E. coli BL21 (DE3) pLySs, purified (Ni-NTA agarose)
B3: TRANSPARENT TESTA GLABRA1 (TTG1) fused to GST (natural protein, Arabidopsis, UniProt Q9XGN1 1-341, looked up)
chain: MDNSAPDSLSRSETAVTYDSPYPLYAMAFSSLRSSSGHRIAVGSFLEDYNNRIDILSFDSDSMTVKPLPNLSFEHPYPPTKLMFSPPSLRRPSSGDLLASSGDFLRLWEINEDSSTVEPISVLNNSKTSEFCAPLTSFDWNDVEPKRLGTCSIDTTCTIWDIEKSVVETQLIAHDKEVHDIAWGEARVFASVSADGSVRIFDLRDKEHSTIIYESPQPDTPLLRLAWNKQDLRYMATILMDSNKVVILDIRSPTMPVAELERHQASVNAIAWAPQSCKHICSGGDDTQALIWELPTVAGPNGIDPMSVYSAGSEINQLQWSSSQPDWIGIAFANKMQLLRV
notes: TTG1 (TRANSPARENT TESTA GLABRA1), WD40 repeat protein of Arabidopsis; The methods describe the cloning of only EGL3 into pGEX4T-1; the making of TTG1-GST is not described; also called TTG1-GST; source: recombinant, purified

Tests used:
His-fused BIN2 = biological target: B2; experiment: pull-down; GST fusions bound to GST resin, BIN2-His added, 2 hr at 4°C; 10 mM phosphate buffer pH 7.4, 140 mM NaCl, 3 mM KCl, 0.1% Triton X-100; immunoblot with anti-His antibody; settings: both partners purified
GST-fused EGL3 = biological target: T1, GST-fused EGL3; experiment: as above; settings: both partners purified

Binder	binding result (His-fused BIN2)	binding result (GST-fused EGL3)
B1	binds	
B2		binds
B3	binds	
